{
  "source": "patent US12611470B2",
  "about": "“Chromatin-opening element for stable long term gene expression” (CZ Biohub SF, LLC, priority 2019, dated 2026)",
  "molecules": {"B1": {"name": "Candidate 6: Full length SRF-UCOE, SEQ ID NO:1; region between human SURF1 and SURF2 including first introns, chr9 (nucleic acid, listed as Homo sapiens)", "DNA": "GCACACGACCACAATTCCACTGAAAGCATTTTAATACGGAACTTGTCACTCCCAGGGAGCCTCCGCTCAGCCGGCAGTTGGTTCATTTCAATCCCCACGACAACCCTTCAAAGTGCAGGGCAGACAGCAGGTGGCTCTGCCCAGGCGCCTGGATCACAGCCCGGCCTGCAGCCCTCACCTGGGCGCGGGGAGACCCTGAGGACGCTCCTCCAGGCGGCGCTGGCCGGGGCCTGCGGACACGGACGGGCGGGCTGAGCTCCGGGACCCCTCCCCGCGCCCCGCACCCCGCACCCCGCACCCCGCACCCCGCACCCGGCGCTCACCCGTCCCAGCCCCGCCGCCCGCAGCCCCAGCTGCAACGCAGCCACCGCCGCCATCGCACCCGGCCCCGCGGGCGCTTCCGGGACGCAGGAGGCATCTGCATCCGGGGCGCCGCTGAGTCCCGCCCAGAGCCCCGCCCCCGGCTCCAGGTTCTGCGAGCGGCTTCCGCCGGGCTGCTCCGCGGGCGCGTCGGCCATGAGCGAGTTGCCGGGCGACGTGCGGGCGTTTCTGCGGGAGCACCCGAGCCTGCGGCTCCAGACGGACGCCCGCAAGGTTCGCAGCGCGGGAGGGGAACGGAGTGGCGGAGAAGGGCGCAGTTGGGATGAGGGGCTGAGGGGAGGGCAGGGGAGAGGAGAGGGCAGGGGAGAGGGGAGAGGGGAGAGCAGGAGAGAGGGGAAGGCAGGGGAGAGGGCGCGGCGGGATCAGGGGAGGAGAGGGAAGGGGGCGCGGCAGGAGGGGGCACCAGGGAGCGGAGCCCTGGCCCTCCTGACGTCCTGCCCGCCCACGCGTCCGCAGGTGAGGTGCATCCTGACAGGTCACGAGCTGCCCTGCCGCCTGCCGGAGCTCCAGGTCTACACCCGCGGCAAAAAGTACCAGCGGCTGGTCCGCGCCTCCCCGGCCTTCGACTATGCAGAGTTCGAGCCGCACATCGTGCCCAGCACCAAGAACCCGTAGGTGGTC"}},
  "tested_on": "P19 cells",
  "assay": "Lentiviral transduction silencing experiment, UCOE linked to CMV, EF1α, RSV or PGK promoter driving GFP",
  "format": "cell-based, mouse",
  "text": "The graphs show the raw data of measured percent GFP positive cells (% GFP+) for each construct over time. Transduced populations were sorted into triplicate wells using FACS at day 0 (5 days after lentiviral transductions) to begin the study at 100% GFP positive cells. Expression is lost quickly within the first 10 days, and then stabilizes around day 15. Data is reported as mean±SD from biological triplicates. Two positive UCOE controls (A2UCOE, 3′UCOE) and a negative control (no insulator region) were used.\nPercent GFP positive cells at the final timepoint (day 26 for CMV and RSV, day 27 for PGK and EF1α) of the lentivirus silencing experiment across the four tested promoters is plotted. P19 cells were FACS-sorted five days after transduction (day 0) and then assayed over a 26 or 27-day time period thereafter. Data is reported as mean±SD from three biological replicates.\nTwo plasmids (pCS3800: encoding HIV-1 Gag; pCS380: encoding VSVg envelope protein) were used with varying versions of the donor plasmid pCS3799. HEK293T cells were plated at 5×10^6 cells in a 10 cm dish. Twenty-four hours after plating, the three plasmids (10 μg donor, 8 μg pCS3800, 10 μg pCS3801) were co-transfected together using a calcium phosphate protocol (Zufferey, R. T. and Trono, D. (2001) Current Protocols in Human Genetics, 26 (1), 12.10.1-12.10.12; DOI: 10.1002/0471142905.hg1210s26 (55)). The total DNA was brought to 500 μL in water, to which 500 μL of 2×HEPES-buffered saline, pH7.0 (Alfa Aesar) was added and mixed. One-tenth of the total volume (100 μL) of 2.5 M calcium chloride (Sigma-Aldrich) was then added to the mixture, followed by a 20-minute incubation. The mixture was then added to the plate in a dropwise manner. Media was replaced six hours later, and the supernatant was collected at 48 hr after the transfection, filtered through 0.4 μm filter, and frozen at −80° C. in 1 mL aliquots. Lentiviral aliquots were thawed in a 37° C. bead bath before transductions.\nP19 cells were plated at 20-30,000 cells/well in 12-well plates one day before transduction. Twenty-four hours after plating, cells were transduced at varying dilutions of the lentiviral stock (ranging from 1:2 to 1:100) in DMEM+10% FBS with 8 μg/mL polybrene (Santa Cruz Biotechnologies). Media was refreshed on P19 cells 24 hours after transduction, and cells were passaged and assayed through a MACSQuant® VYB flow cytometer (Miltenyi Biotec) 48 h after transduction. MOI was determined by reporter expression at this timepoint using the following formula: MOI=ln (1/1-p) where p is the % of cells that are GFP positive at 48 hours post-transduction (Chen, S. et al. (2015) Cell, 160, 1246-1260 (56)).\nCells were FACS-sorted on the BD Influx™ cell sorter at the Stanford FACS Facility using the 488-nm laser and 525/40 filter to assay GFP expression. After gating for singlets and viability, GFP+ gate was drawn to be <0.1% GFP positive in non-transduced P19 cells. GFP+ gates were re-drawn for each promoter set to avoid the ˜10% highest and lowest expressing cells within the GFP+ gate, but the same gate was used for every experimental condition under the same promoter. Triplicate wells of each population (12-15,000 cells/well in a 24-well plate) were collected.\nFluorescence data throughout silencing experiments was obtained using a MACSQuant® VYB flow cytometer (Miltenyi Biotec). EGFP was measured through the 488-nm laser and 525/50 nm band pass filter. Flow cytometry data was analyzed using the FlowJo™ single cell flow cytometry analysis software (Tree Star). After being gated for singlets and viability, GFP+ gates in FlowJo were drawn such that a non-transfected or non-transduced P19 cell population was at 1% GFP+. Median values reported are of cells within the GFP+ gate, both % GFP positive and median are reported with the standard deviation of biological replicates. […]",
  "data": [
    {"molecule": "B1", "values": [
      {"measurement": "GFP positive cells / expression compared to the negative control", "setting": "Ef1α promoter, final timepoint", "result": 2.7, "unit": "times"},
      {"measurement": "% GFP+ cells at final timepoint", "setting": "PGK promoter, day 27", "result": 29, "unit": "%"},
      {"measurement": "expressing cells / improvement over the negative control", "setting": "PGK promoter, day 27", "result": 5, "unit": "fold"},
      {"measurement": "% GFP+ cells at final timepoint", "setting": "RSV promoter, day 26", "result": 76, "unit": "%"},
      {"measurement": "% GFP+ cells, representative example (one biological replicate)", "setting": "RSV promoter, day 26", "result": 79.6, "unit": "%"}
    ]}
  ]
}
